Assay results: paper PMC3202462

Key:
[1] = target: E-domain of gephyrin (residues 309-750, P1 variant); experiment: ITC
[2] = target: GST fusion of the intracellular loop of the GABAAR α2 subunit; experiment: far-Western, overlay or dot blot
GST-α1 T375E (mouse) = GST-α1 T375E (mouse) (UniProt P62812); experiment: far-Western, overlay or dot blot
GST-α1 T375D (mouse) = GST-α1 T375D (mouse) (UniProt P62812); experiment: far-Western, overlay or dot blot
[3] = target: GST fusion of the intracellular domain of the GABAAR α5 subunit; experiment: far-Western, overlay or dot blot
GST-α1 T375A (mouse) = GST-α1 T375A (mouse) (UniProt P62812); experiment: far-Western, overlay or dot blot

Kd [1] | stoichiometry N [1] | gephyrin binding, % of GST-α1 [2] | gephyrin binding normalised to GST-α1 (100%) (GST-α1 T375E (mouse)) | gephyrin binding normalised to GST-α1 (100%) (GST-α1 T375D (mouse)) | gephyrin binding, % of control [3] | gephyrin binding, % of control (GST-α1 T375A (mouse)) | dH [1] | Substance
17 µM | 0.62 |  |  |  |  |  |  | 6-His-tagged GABAAR α1 cytoplasmic loop (M3-M4), wild type (domain or fragment)
183 µM | 0.69 |  |  |  |  |  |  | 6-His-tagged GABAAR α1 T375E cytoplasmic loop (domain or fragment)
 |  | 43.7 % of GST-α1 | 62.5% | 68.9% | 12.9 % of control | 109 % of control |  | 35S-methionine-labelled gephyrin, P1 isoform (natural protein)
36 µM | 0.64 |  |  |  |  |  | -15 kcal/mol | 6-His-tagged GABAAR α1 T375A cytoplasmic loop (domain or fragment)
